Legend:
[1] = molecular target: IgM^CM-22; test: cell-based or functional assay
[2] = molecular target: IgM^CM-22; test: competition ELISA: synthetic P8 peptide titrated against phage P8 binding to IgM^CM-22-coated plate
[3] = molecular target: IgM^CM-22; test: SPR (BiaCore), IgM^CM-22 amine-coupled to CM5 chip, N2 injected at 10.5-120 µM, steady-state fit with 1:1 Langmuir isotherm

concentration of P8 sufficient to block IgM^CM-22 [1] | mean pathology score, intestinal RI in RAG-1-/- mice given IgM^CM-22 mixed with P8 versus IgM^CM-22 alone (pathology score) [1] | IC50 [2] | mean pathology score, intestinal RI in RAG-1-/- mice given IgM^CM-22 mixed with N2 versus IgM^CM-22 and saline (pathology score) [1] | Kd [3] | Binder
10 µM | 6 | 10 µM |  |  | NGNNVNGNRNNN [synthetic peptide P8]
 |  |  | 13 | 123 µM | LMKNMDPLNDNV [self-peptide N2]
